According to the nanobody polyreactivity screen of Harvey et al. (2022):

Assay: yeast display, Sf9 membrane polyspecificity reagent, FACS + sequencing; frameworks hold sequencing errors
Summary of the method: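 Polyreactivity labels are assigned by the sorting gate from which each nanobody was recovered. The gates were low and high (top ~1%), set on anti-HA fluorescence for expression and streptavidin fluorescence for reagent binding. Before sorting, galactose-induced (36–48 hours) yeast display cells were stained for 1 hour at 4 °C with 10% biotinylated, detergent-solubilized Sf9 membrane reagent.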

Sequence | polyreactivity (PSR sort gate)
QVQLVESGGGLVQAGGSLRLSCAASGRTFYAYAMGWYRQAPGKERELVAAINTSGGRTYYADSVKGRFTISRDNAKNTVYLLMNSLKPEDTAVYYCAADVFTFYPRRYDYWGQGTQVTVSS | low polyreactivity
QVQLVESGGGLVQAGGSLRLSCAASGRTFYAYAMGWYRQAPGKERELVAAINTSGGRTYYADSVKGRFTISRDNAKNTVYLQMNSLKPEDTAVYYCAADVYTFYPRRYDYWGQGTQVTVSS | low polyreactivity
QVQLVESGGGLVQAGGSLRLSCAASGRTFYAYAMGWYRQAPGKERELVAAISWRGGRTYYADSVKGRFTISRDNAKNTVYLQMNSLKPEDTAVYYCAAEYSYGFDYWGQGTQVTVSS | high polyreactivity
QVQLVESGGGLVQAGGSLRLSCAASGRTFYAYGMGWYRQAPGKERELVARISSSTGRTYYADSVKGRFTISRDNAKNTVYLQMNSLKPEDTAVYYCAALFYGYRGGGYGGPAAGDYWGQGTQVTVSS | high polyreactivity
QVQLVESGGGLVQAGGSLRLSCAASGRTFYDNTMGWYRQAPGKERELVAAITRNGGSTYYADSVKGRFTISRDNAKNTVYLQMNSLKPEDTAVYYCAVYVAYLYSYYYWGQGTQVSVSS | low polyreactivity
QVQLVESGGGLVQAGGSLRLSCAASGRTFYDYAMGWYRQAPGKERELVAAISSRGGRTYYADSVKGRFTISRDNAKNTVYLQMNSLKPEDSAVYYCAKVVDYNDRDSWGQGTQVTVSS | high polyreactivity
QVQLVESGGGLVQAGGSLRLSCAASGRTFYDYDMGWYRQAPGKERELFAAISGGDSTYYADSVKGRFTISRDNAKNTFYLQLKSLKPEDTAVYDCAVTPRGLPYGAYLLYYWGQGTQVTVSS | low polyreactivity
QVQLVESGGGLVQAGGSLRLSCAASGRTFYDYDMGWYRQAPGKERELVATIRRDGSTYYADSVKGRFTISRDNAKNTVYLQMNSLKPEDTAVYYCAKDGGYPLDEPEFDYWGQGTQVTVSS | low polyreactivity
QVQLVESGGGLVQAGGSLRLSCAASGRTFYEYAMGWYRQAPGKERELVAAITRSGGSTYYADSVKGRFTISRDNAKNTVYLQMNSLKPEDTAVYYCAAYRLQYRVRYYTAYDYWGQGTQVTVSS | high polyreactivity
QVQLVESGGGLVQAGGSLRLSCAASGRTFYEYAMGWYRQAPGKESELVASIRSGGSTFYADSVKGRFTISRDNAKYTVYLQMNSLKPEDTAVYYCAAYRVPPYRYRFARVNYWGQGTQVTVSS | high polyreactivity
QVQLVESGGGLVQAGGSLRLSCAASGRTFYFNAMGWYRQAPGKERELVAAITNSGGSTYYADSVKGRFTISRDNAKNTVYLQMNSLKPEDTAVYYCAATYKDGYWLVPGYGYWGQGTQVTVSS | low polyreactivity
QVQLVESGGGLVQAGGSLRLSCAASGRTFYFNAMGWYRQAPGKERELVATITSDGSTNYADSVKGRFTISRDNAKNTVYLQMNSLKPEDTAVYYCAADYYRDIWPWYPLYNYWGQGTQVTVSS | low polyreactivity
QVQLVESGGGLVQAGGSLRLSCAASGRTFYFYPMGWYRQAPGKERELVAAIRSSGGSTNYADSVKGRFTISRDNAKNTVYLQMNSLKPEDTAVYYFAAKRRAKGNYAFYYWGQGTQVTVSS | high polyreactivity
QVQLVESGGGLVQAGGSLRLSCAASGRTFYFYTMGWYRQAPGKERELVAAITSGGSTNYADSVKGRFTISRDNAKNTVYLQMNSLKPEDTAVYYCAAAYWRPGVRFFGPYDYWGQGTQVTVSS | high polyreactivity
QVQLVESGGGLVQAGGSLRLSCAASGRTFYFYVKGWYRQAPAKERELVARISWSGGSTYYADSVKGRFTISRDNAKNTVYLQMNSLKPEDTAVYYCARQYIYPSSGEYDSWGQGTQVTVSS | low polyreactivity
QVQLVESGGGLVQAGGSLRLSCAASGRTFYGNAMGWYRQAPGKERELVAAITTGGGNTYYADSVKGRFTISRDHAKNTVYLQMNRLKPEDTAVYYCAAYERKFYTVSRWYKLDYWGQGTQVTVSS | high polyreactivity
QVQLVESGGGLVQAGGSLRLSCAASGRTFYGYAMGWYRQAPGKERELVAGISGRGTRTYYADSVKGRFTISRDNAKNTVYLQMNSLKPEDTAVYYCNAVSIGYYSQSLGLDYWGQGTQVTVSS | high polyreactivity
QVQLVESGGGLVQAGGSLRLSCAASGRTFYGYAMGWYRQAPGKERELVASISRDGSTNYADSVKGRFTISRDNAKNTVYLQMYSLKPEDTAVYYCAADIWYYRYPIYYYSYDYWGQGTQVTVSS | low polyreactivity
QVQLVESGGGLVQAGGSLRLSCAASGRTFYGYAMGWYRQPPGKERELVATISGSGGTTYYADSVKGRFTISRDNAKNTVYLQMNSLKPEDTAVYYCAADRYLYFYWWPHVGGSPTYGYWGQGTQVTVSS | high polyreactivity
QVQLVESGGGLVQAGGSLRLSCAASGRTFYHNAMGWYRQAPGKERELVATINSGGSTYADSVKGRFTISRDNAKNTVYLQMISLKPEDTAVYYCASTFWSRSRFYYRYDYWGQGTQVTVSS | high polyreactivity
QVQLVESGGGLVQAGGSLRLSCAASGRTFYHYAMGWYRQAPGKERELVAAITYRGGNTYYADSVKGRFTISRDNAKNTVYLQMNSLKPEDTAVYFCAKQGVRRHYGYDYWGQGTQVTVSS | high polyreactivity
QVQLVESGGGLVQAGGSLRLSCAASGRTFYINAMGWYRQAPGKERELVATISRSGGDTYYADSVKGRFTISRDNAKNTVYIEMTSLKPEDTAVYFCNARQYYYRSGAYASRYLYNYWGQGTQVTVSS | high polyreactivity

Sequence | polyreactivity (PSR sort gate)
QVQLVESGGGLVQAGGSLRLSCAASGRTFYIYAMGWYRQAPGKERELVAAITSGTSSTYYADSVKGRFTISRDNAKNTVYLQMNSLKPEDTAVYYCAASSTGYGGSTYYYWGQGTQVTVSS | low polyreactivity
QVQLVESGGGLVQAGGSLRLSCAASGRTFYIYAMGWYRQAPGKERELVAAITYSSGTTYYADSVKGRFTISRDNAKNTVYLQMNSLKPEDTAVYYCAADVGFNQFDYWGQGTQVTVSS | low polyreactivity
QVQLVESGGGLVQAGGSLRLSCAASGRTFYKYAMGWYIQAPGKERELVAAISSRGGRTYYADSVKGRFTISRDNAKNTVYLQMNSLKPEDTAVYYCAADYAVEWWGNWYEYWGQGTQVTVSS | high polyreactivity
QVQLVESGGGLVQAGGSLRLSCAASGRTFYKYAMGWYRQAPGKERELVAAINRIGGRTYYADSVKGRFTISRDNAKNTVYLQMNSLKPEDTAVYYCAAEFVGDNRHGYWGQGTQVTVSS | high polyreactivity
QVQLVESGGGLVQAGGSLRLSCAASGRTFYLNVMGWYRQAPGKEREFVASISTTGGSTYYADSVKGRFTISRDNAKNTVYLQMNSLKPDDTAVYYCAASLRYWARNYWGQGTQVTVSS | high polyreactivity
QVQLVESGGGLVQAGGSLRLSCAASGRTFYLYAMGWYRQAPGKERELVAAITWRGGSTYYADSVKGRFTISRDNAKNTVYLQMNSLKPEDTAVYYCSAVTFFYYSAVRYEYYYWGQGTQVTVSS | high polyreactivity
QVQLVESGGGLVQAGGSLRLSCAASGRTFYNAMGWYRQAPVKEMELVAAITTGGGTKYADSVKGRFTISRDNAKNTFYLQMNSLKPEDTAVYYCNTDEWYHFYHGAHKYDYWGQGTQVTLSS | low polyreactivity
QVQLVESGGGLVQAGGSLRLSCAASGRTFYNYAMGWYRQAPGKEREFVAAITFRTSSTYYADSVKGRFTISRDNAKNTVYLQMNSLKQEDTAVYYCNADRYWGYDYWGQGTQVTVSS | high polyreactivity
QVQLVESGGGLVQAGGSLRLSCAASGRTFYNYAMGWYRQAPGKERELVAAISGSGGSTYYADSVKGRFTISRDNAKNTVYLQMNSLKPEDTAVYYCAARKDSYYYRSYDSWGQGTQVTVSS | high polyreactivity
QVQLVESGGGLVQAGGSLRLSCAASGRTFYNYAMGWYRQAPGKERELVATINWSGGRTYYADSVKGRFTISRDNAKNTVYLQMNSLKAEDTAVYYCAKTWLYQSNEYGYWGQGTQVTVSS | low polyreactivity
QVQLVESGGGLVQAGGSLRLSCAASGRTFYPNAMGWYRQAPGKERELVARITTRGGSTYYADSVKGRFTISRDNAKNTVYLQMNSLKPEATAVYYCAVDYNSDWAYDYWGQGTQVTVSS | high polyreactivity
QVQLVESGGGLVQAGGSLRLSCAASGRTFYPYAMGWYRKAPVKERDLVAAISWSGGSTRYADSVKGRFTISRDNAKNTVDLQMNSLKPEDTAVYYCNTQYSWYYPADYDYWGQGTQVTVSS | low polyreactivity
QVQLVESGGGLVQAGGSLRLSCAASGRTFYPYAMGWYRQAPGKERELVAAISSGGSTTYADSVKGRFTISRDNAKNTVYLQMNSLKPEDTAVYYCAVYGTERLAFDYWGQGTQVTVSS | low polyreactivity
QVQLVESGGGLVQAGGSLRLSCAASGRTFYPYAMGWYRQAPGKERELVASINWSGASTYYADSVKGRFTISRDNAKNTVYLQMNSLKPEDTAVYYCAAYITYLSSRFWYGYWGQGTQVTVSS | high polyreactivity
QVQLVESGGGLVQAGGSLRLSCAASGRTFYPYDMGWYRQAPGKERELDAAISRSGGSTYYADSVKGRFTISRDNAKNSVYLQMNSLKPEDTAVYYCAAVYYSYSFVDHYDYWGQGTQVTVSS | low polyreactivity
QVQLVESGGGLVQAGGSLRLSCAASGRTFYPYVMGWYRQSPGKERELVASISWSGGSTYYADSVKGRFTFSRDNAKNSVYLQMNSLKPEDTAVYYCAALWPYGYWGQGTQVTVSS | low polyreactivity
QVQLVESGGGLVQAGGSLRLSCAASGRTFYQYAMGWYRQAPGKERELVAAISRSGTSTYYADSVKGRFTISRDNAKITVYLQMNSLKPEDTAVYYCATSTGRGYSWGQGTQVTVSS | high polyreactivity
QVQLVESGGGLVQAGGSLRLSCAASGRTFYQYAMGWYRQAPGKERELVAAISWSDGSTSYADSVKGRFTISRDNAKNTVYLQMNSLKQEDTAVYYCAKDWTGTKAIEYDYWGQGTQVTVSS | low polyreactivity
QVQLVESGGGLVQAGGSLRLSCAASGRTFYQYAMGWYRQAPGKERELVAAITTSGGSTYYADSVKGRFTISRDNAKNTVYLQMNSLKPEDTAVYYCAAPYTGYRERGSYKSDYWGQGTQVTVSS | low polyreactivity
QVQLVESGGGLVQAGGSLRLSCAASGRTFYQYTMGWYRQAPGKERELVATISDSTNYADSVKGRFTISRDNAKNTVYLQMNSLKPEDTAVYYCNARVRGLGKYESWGQGTQVTVSS | low polyreactivity
QVQLVESGGGLVQAGGSLRLSCAASGRTFYRNAMGWSRQAPGKERELVAAISYRGGRTYYADSVKGRFTISRDNAKNTVYLQMNSLKPEDTAVYYCAADLRTRVPYDYWGQGTQVTVSS | high polyreactivity
